# Starred links: 1 amine or outer side, 2 acyl side, 3 side chain; linkers in the order of their positions; H or OH if unused. Positions of bridges follow the written chain, without caps; N, C: chain ends. Non-standard residues stand in square brackets, D forms with d. Primed or numbered codes have the meaning given here. Chains are numbered I, II in the order given. No end group written: not given here. *: point of attachment. PYA(3) = 4-pentynoic acid, on D-Lys NZ, clicked (triazole) to the linker azide; TATA = O=C(CC[*:1])N1CN(C(=O)CC[*:2])CN(C(=O)CC[*:3])C1; γGlu = O=C(O)[C@H](CCC(=O)[*:2])N[*:1]; Palmitoyl = CCCCCCCCCCCCCCCC(=O)*; Hyp = O=C(O)[C@@H]1C[C@@H](O)CN1; hArg = N=C(N)NCCCC[C@H](N)C(=O)O; tBuAla = CC(C)(C)C[C@H](N)C(=O)O; Cysteamide = C(CS[*:3])N[*:1]; dK(PYA) = not defined here; Nle = CCCC[C@H](N)C(=O)O; Mpa = O=C(O)CCS
# Target: CD137 (Homo sapiens, UniProt Q07011)
# Sequence (Q07011 24-255): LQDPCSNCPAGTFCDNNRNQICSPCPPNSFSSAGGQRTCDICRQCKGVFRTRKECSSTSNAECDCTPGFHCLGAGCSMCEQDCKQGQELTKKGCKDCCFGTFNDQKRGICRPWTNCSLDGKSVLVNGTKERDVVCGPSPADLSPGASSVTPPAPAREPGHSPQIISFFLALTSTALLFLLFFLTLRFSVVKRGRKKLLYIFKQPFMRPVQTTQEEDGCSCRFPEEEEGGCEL
# Assay: CD137 reporter assay (Promega, Jurkat cells) in co-culture with EphA2-expressing tumor cells (A549, PC3, HT29)
# Format: cell-based
# Design: host or cells: Jurkat reporter cells
# Details: co-culture with PC3; for Fold Improvement over Emax: versus BCY9173
# Description: Culture medium, referred to as R1 media, is prepared by adding 1% FBS to RPMI-1640 (component of Promega kit CS196005). Serial dilutions of test articles in R1 are prepared in a sterile 96 well-plate. Add 25 μL per well of test articles or R1 (as a background control) to designated wells in a white cell culture plate. Tumor cells* are harvested and resuspended at a concentration of 400,000 cells/mL in R1 media. Twenty five (25) μL/well of tumor cells are added to the white cell culture plate. Jurkat cells (Promega kit CS196005, 0.5 mL) are thawed in the water bath and then added to 5 ml pre-warmed R1 media. Twenty five (25) μL/well of Jurkat cells are then added to the white cell culture plate. Incubate the cells and test articles for 6 h at 37° C., 5% CO2. At the end of 6 h, add 75 μL/well Bio-Glo™ reagent (Promega) and incubate for 10 min before reading luminescence in a plate reader (Clariostar, BMG). The fold change relative to cells alone (Jurkat cells+Cell line used in co-culture) is calculated and plotted in GraphPad Prism as log(agonist) vs response to determine EC50 (nM) and Fold Induction over background (Max).
# The tumor cell types used in co-culture for EphA2 are A549, PC3 and HT29. The tumor cell type used in co-culture for PD-L1 is RKO.
Substance,"Fold Improvement over BCY9173, EC50 (nM)",Fold Improvement over Emax
"BCY12725: EphA2:CD137 1:2; BCY9594 + 2x BCY12147; linker N-(acid-PEG3)-N-bis(PEG3-azide) (peptide 1 A[hArg]DC[Hyp]LVNPLCLHP[dD]W[hArg]C; peptide 2 Ac-C[tBuAla]PE[dK](PYA(3))PYCFANPY[Nle]C; linker I:4-I:11-I:18, II:1-II:8-II:15 via TATA; not fully specified (N-terminus, bridges); also: chain 2 present twice on linker, EphA2:CD137 1:2)",0.1 fold,0.7 fold
BCY12726: EphA2:CD137 1:2; BCY9594 + 2x BCY12145; linker N-(acid-PEG3)-N-bis(PEG3-azide) (peptide 1 A[hArg]DC[Hyp]LVNPLCLHP[dD]W[hArg]C; peptide 2 Ac-C[tBuAla]PE[dK(PYA)]PYCFAEPY[Nle]C; linker I:4-I:11-I:18 via TATA (inferred); linker II:1-II:8-II:15 via TATA; linker II:N-II:5 via N‑(acid-PEG3)‑N‑bis(PEG3-azide); not fully specified (N-terminus); reading uncertain; also: chain 2 twice (1:2 complex)),0.2 fold,0.9 fold
BCY12729: EphA2:CD137 1:2; BCY9594 + 2x BCY12352; linker N-(acid-PEG3)-N-bis(PEG3-azide) (peptide 1 A[hArg]DC[Hyp]LVNPLCLHP[dD]W[hArg]C; peptide 2 Ac-C[tBuAla]PE[dK(PYA)]PYCFADPY[Nle][Cysteamide]; linker I:4-I:11-I:18 via TATA (inferred); linker II:1-II:8-II:15 via TATA; linker II:N-II:5 via N‑(acid-PEG3)‑N‑bis(PEG3-azide); not fully specified (N-terminus); reading uncertain; also: chain 2 twice (1:2 complex)),0.5 fold,1.6 fold
"BCY12731: EphA2:CD137 1:2; BCY9594 + 2x BCY12354; linker N-(acid-PEG3)-N-bis(PEG3-azide) (peptide 1 A[hArg]DC[Hyp]LVNPLCLHP[dD]W[hArg]C; peptide 2 [Mpa][tBuAla]PE[dK(PYA)]PYCFADPY[Nle][Cysteamide]; linker I:4-I:11-I:18 via TATA (inferred); linker II:1-II:8-II:15 via TATA; not fully specified (N-terminus); reading uncertain; also: chain 2 twice (1:2 complex), linker at chain B 5 to a chain's N-terminus via N-(acid-PEG3)-N-bis(PEG3-azide))",0.2 fold,1.5 fold
"BCY12732: EphA2:CD137 1:2; BCY9594 + 2x BCY12360; linker N-(acid-PEG3)-N-bis(PEG3-azide) (peptide 1 A[hArg]DC[Hyp]LVNPLCLHP[dD]W[hArg]C; peptide 2 {Palmitoyl-γGlu-γGlu}-C[tBuAla]PE[dK(PYA)]PYCFADPY[Nle]C; linker I:4-I:11-I:18 via TATA (inferred); linker II:1-II:8-II:15 via TATA; not fully specified (N-terminus); reading uncertain; also: chain 2 twice (1:2 complex), linker at chain B 5 to a chain's N-terminus via N-(acid-PEG3)-N-bis(PEG3-azide))",0.5 fold,0.4 fold

# Reference: patent US20230129258A1, “HETEROTANDEM BICYCLIC PEPTIDE COMPLEXES” (BicycleTx Limited, priority 2019, published 2023)
